*1 amine or outer side, *2 acyl side, *3 side chain or, on linkers, in order; H or OH if unused. Side-chain parts run from the residue outwards. The star is where a group is joined. C18 diacid = O=C(O)CCCCCCCCCCCCCCCCC(=O)*; γGlu = O=C(O)[C@H](CCC(=O)[*:2])N[*:1]; Isovaleryl = CC(C)CC(=O)*; Ahx = NCCCCCC(=O)O
T1: human NPY2 receptor (human, UniProt P49146 1-381)
T1 construct: whole, on cells; also called hNPY2-R; hNPY2R
T1 sequence (looked up): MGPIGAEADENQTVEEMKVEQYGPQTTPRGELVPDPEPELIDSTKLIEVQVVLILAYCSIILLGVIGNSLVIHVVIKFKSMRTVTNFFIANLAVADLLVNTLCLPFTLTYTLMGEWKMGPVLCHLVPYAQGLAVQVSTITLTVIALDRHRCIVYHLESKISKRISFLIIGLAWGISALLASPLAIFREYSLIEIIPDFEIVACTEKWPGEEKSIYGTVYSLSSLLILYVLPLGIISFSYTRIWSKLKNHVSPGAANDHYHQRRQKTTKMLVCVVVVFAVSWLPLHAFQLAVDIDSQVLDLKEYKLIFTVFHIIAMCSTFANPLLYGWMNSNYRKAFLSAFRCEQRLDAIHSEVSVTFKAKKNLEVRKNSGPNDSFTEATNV


These binders were tested against T1, human NPY2 receptor (assay: RLB: displacement of 125I-PYY(1-36) from hNPY2R membranes).

Binder | Ki
Isovaleryl-APEK([Ahx-γGlu-C18 diacid])PEEDATPEELQSYYVSLRHYYNWLTRQRY-NH2 (SMILES CC(C)CC(=O)N[C@@H](C)C(=O)N1CCC[C@H]1C(=O)N[C@@H](CCC(=O)O)C(=O)N[C@@H](CCCCNC(=O)CCCCCNC(=O)CC[C@H](NC(=O)CCCCCCCCCCCCCCCCC(=O)O)C(=O)O)C(=O)N1CCC[C@H]1C(=O)N[C@@H](CCC(=O)O)C(=O)N[C@@H](CCC(=O)O)C(=O)N[C@@H](CC(=O)O)C(=O)N[C@@H](C)C(=O)N[C@H](C(=O)N1CCC[C@H]1C(=O)N[C@@H](CCC(=O)O)C(=O)N[C@@H](CCC(=O)O)C(=O)N[C@@H](CC(C)C)C(=O)N[C@@H](CCC(N)=O)C(=O)N[C@@H](CO)C(=O)N[C@@H](Cc1ccc(O)cc1)C(=O)N[C@@H](Cc1ccc(O)cc1)C(=O)N[C@H](C(=O)N[C@@H](CO)C(=O)N[C@@H](CC(C)C)C(=O)N[C@@H](CCCNC(=N)N)C(=O)N[C@@H](Cc1c[nH]cn1)C(=O)N[C@@H](Cc1ccc(O)cc1)C(=O)N[C@@H](Cc1ccc(O)cc1)C(=O)N[C@@H](CC(N)=O)C(=O)N[C@@H](Cc1c[nH]c2ccccc12)C(=O)N[C@@H](CC(C)C)C(=O)N[C@H](C(=O)N[C@@H](CCCNC(=N)N)C(=O)N[C@@H](CCC(N)=O)C(=O)N[C@@H](CCCNC(=N)N)C(=O)N[C@@H](Cc1ccc(O)cc1)C(N)=O)[C@@H](C)O)C(C)C)[C@@H](C)O) [Compound 141] | 8.17 nM
Isovaleryl-APEK([Ahx-γGlu-C18 diacid])PEEDAEPEELQEYYVSLRHYYNWLTRQRY-NH2 (SMILES CC(C)CC(=O)N[C@@H](C)C(=O)N1CCC[C@H]1C(=O)N[C@@H](CCC(=O)O)C(=O)N[C@@H](CCCCNC(=O)CCCCCNC(=O)CC[C@H](NC(=O)CCCCCCCCCCCCCCCCC(=O)O)C(=O)O)C(=O)N1CCC[C@H]1C(=O)N[C@@H](CCC(=O)O)C(=O)N[C@@H](CCC(=O)O)C(=O)N[C@@H](CC(=O)O)C(=O)N[C@@H](C)C(=O)N[C@@H](CCC(=O)O)C(=O)N1CCC[C@H]1C(=O)N[C@@H](CCC(=O)O)C(=O)N[C@@H](CCC(=O)O)C(=O)N[C@@H](CC(C)C)C(=O)N[C@@H](CCC(N)=O)C(=O)N[C@@H](CCC(=O)O)C(=O)N[C@@H](Cc1ccc(O)cc1)C(=O)N[C@@H](Cc1ccc(O)cc1)C(=O)N[C@H](C(=O)N[C@@H](CO)C(=O)N[C@@H](CC(C)C)C(=O)N[C@@H](CCCNC(=N)N)C(=O)N[C@@H](Cc1c[nH]cn1)C(=O)N[C@@H](Cc1ccc(O)cc1)C(=O)N[C@@H](Cc1ccc(O)cc1)C(=O)N[C@@H](CC(N)=O)C(=O)N[C@@H](Cc1c[nH]c2ccccc12)C(=O)N[C@@H](CC(C)C)C(=O)N[C@H](C(=O)N[C@@H](CCCNC(=N)N)C(=O)N[C@@H](CCC(N)=O)C(=O)N[C@@H](CCCNC(=N)N)C(=O)N[C@@H](Cc1ccc(O)cc1)C(N)=O)[C@@H](C)O)C(C)C) [Compound 138] | 12.5 nM
Isovaleryl-APEK([Ahx-γGlu-C18 diacid])PEEEASPAELQRYYVSLRHYYNWLTRQRY-NH2 (SMILES CC(C)CC(=O)N[C@@H](C)C(=O)N1CCC[C@H]1C(=O)N[C@@H](CCC(=O)O)C(=O)N[C@@H](CCCCNC(=O)CCCCCNC(=O)CC[C@H](NC(=O)CCCCCCCCCCCCCCCCC(=O)O)C(=O)O)C(=O)N1CCC[C@H]1C(=O)N[C@@H](CCC(=O)O)C(=O)N[C@@H](CCC(=O)O)C(=O)N[C@@H](CCC(=O)O)C(=O)N[C@@H](C)C(=O)N[C@@H](CO)C(=O)N1CCC[C@H]1C(=O)N[C@@H](C)C(=O)N[C@@H](CCC(=O)O)C(=O)N[C@@H](CC(C)C)C(=O)N[C@@H](CCC(N)=O)C(=O)N[C@@H](CCCNC(=N)N)C(=O)N[C@@H](Cc1ccc(O)cc1)C(=O)N[C@@H](Cc1ccc(O)cc1)C(=O)N[C@H](C(=O)N[C@@H](CO)C(=O)N[C@@H](CC(C)C)C(=O)N[C@@H](CCCNC(=N)N)C(=O)N[C@@H](Cc1c[nH]cn1)C(=O)N[C@@H](Cc1ccc(O)cc1)C(=O)N[C@@H](Cc1ccc(O)cc1)C(=O)N[C@@H](CC(N)=O)C(=O)N[C@@H](Cc1c[nH]c2ccccc12)C(=O)N[C@@H](CC(C)C)C(=O)N[C@H](C(=O)N[C@@H](CCCNC(=N)N)C(=O)N[C@@H](CCC(N)=O)C(=O)N[C@@H](CCCNC(=N)N)C(=O)N[C@@H](Cc1ccc(O)cc1)C(N)=O)[C@@H](C)O)C(C)C) [Compound 139] | 3.6 nM
Isovaleryl-APEK([Ahx-γGlu-C18 diacid])PEEDATPEELQRYYVSLRHYYNWLLRQRY-NH2 (SMILES CC(C)CC(=O)N[C@@H](C)C(=O)N1CCC[C@H]1C(=O)N[C@@H](CCC(=O)O)C(=O)N[C@@H](CCCCNC(=O)CCCCCNC(=O)CC[C@H](NC(=O)CCCCCCCCCCCCCCCCC(=O)O)C(=O)O)C(=O)N1CCC[C@H]1C(=O)N[C@@H](CCC(=O)O)C(=O)N[C@@H](CCC(=O)O)C(=O)N[C@@H](CC(=O)O)C(=O)N[C@@H](C)C(=O)N[C@H](C(=O)N1CCC[C@H]1C(=O)N[C@@H](CCC(=O)O)C(=O)N[C@@H](CCC(=O)O)C(=O)N[C@@H](CC(C)C)C(=O)N[C@@H](CCC(N)=O)C(=O)N[C@@H](CCCNC(=N)N)C(=O)N[C@@H](Cc1ccc(O)cc1)C(=O)N[C@@H](Cc1ccc(O)cc1)C(=O)N[C@H](C(=O)N[C@@H](CO)C(=O)N[C@@H](CC(C)C)C(=O)N[C@@H](CCCNC(=N)N)C(=O)N[C@@H](Cc1c[nH]cn1)C(=O)N[C@@H](Cc1ccc(O)cc1)C(=O)N[C@@H](Cc1ccc(O)cc1)C(=O)N[C@@H](CC(N)=O)C(=O)N[C@@H](Cc1c[nH]c2ccccc12)C(=O)N[C@@H](CC(C)C)C(=O)N[C@@H](CC(C)C)C(=O)N[C@@H](CCCNC(=N)N)C(=O)N[C@@H](CCC(N)=O)C(=O)N[C@@H](CCCNC(=N)N)C(=O)N[C@@H](Cc1ccc(O)cc1)C(N)=O)C(C)C)[C@@H](C)O) [Compound 137] | 49.6 nM

Continued by falling Ki, values first:

Ki | Binder
3.83 nM | Isovaleryl-APEK([Ahx-γGlu-C18 diacid])PEAAAEPEEIQRYYVALRHYYNWLTRQRY-NH2 (SMILES CC[C@H](C)[C@H](NC(=O)[C@H](CCC(=O)O)NC(=O)[C@H](CCC(=O)O)NC(=O)[C@@H]1CCCN1C(=O)[C@H](CCC(=O)O)NC(=O)[C@H](C)NC(=O)[C@H](C)NC(=O)[C@H](C)NC(=O)[C@H](CCC(=O)O)NC(=O)[C@@H]1CCCN1C(=O)[C@H](CCCCNC(=O)CCCCCNC(=O)CC[C@H](NC(=O)CCCCCCCCCCCCCCCCC(=O)O)C(=O)O)NC(=O)[C@H](CCC(=O)O)NC(=O)[C@@H]1CCCN1C(=O)[C@H](C)NC(=O)CC(C)C)C(=O)N[C@@H](CCC(N)=O)C(=O)N[C@@H](CCCNC(=N)N)C(=O)N[C@@H](Cc1ccc(O)cc1)C(=O)N[C@@H](Cc1ccc(O)cc1)C(=O)N[C@H](C(=O)N[C@@H](C)C(=O)N[C@@H](CC(C)C)C(=O)N[C@@H](CCCNC(=N)N)C(=O)N[C@@H](Cc1c[nH]cn1)C(=O)N[C@@H](Cc1ccc(O)cc1)C(=O)N[C@@H](Cc1ccc(O)cc1)C(=O)N[C@@H](CC(N)=O)C(=O)N[C@@H](Cc1c[nH]c2ccccc12)C(=O)N[C@@H](CC(C)C)C(=O)N[C@H](C(=O)N[C@@H](CCCNC(=N)N)C(=O)N[C@@H](CCC(N)=O)C(=O)N[C@@H](CCCNC(=N)N)C(=O)N[C@@H](Cc1ccc(O)cc1)C(N)=O)[C@@H](C)O)C(C)C) [Compound 135]
2.8 nM | Isovaleryl-APEK([Ahx-γGlu-C18 diacid])PEEDATPEEQQRYYVSLRHYYNWLTRQRY-NH2 (SMILES CC(C)CC(=O)N[C@@H](C)C(=O)N1CCC[C@H]1C(=O)N[C@@H](CCC(=O)O)C(=O)N[C@@H](CCCCNC(=O)CCCCCNC(=O)CC[C@H](NC(=O)CCCCCCCCCCCCCCCCC(=O)O)C(=O)O)C(=O)N1CCC[C@H]1C(=O)N[C@@H](CCC(=O)O)C(=O)N[C@@H](CCC(=O)O)C(=O)N[C@@H](CC(=O)O)C(=O)N[C@@H](C)C(=O)N[C@H](C(=O)N1CCC[C@H]1C(=O)N[C@@H](CCC(=O)O)C(=O)N[C@@H](CCC(=O)O)C(=O)N[C@@H](CCC(N)=O)C(=O)N[C@@H](CCC(N)=O)C(=O)N[C@@H](CCCNC(=N)N)C(=O)N[C@@H](Cc1ccc(O)cc1)C(=O)N[C@@H](Cc1ccc(O)cc1)C(=O)N[C@H](C(=O)N[C@@H](CO)C(=O)N[C@@H](CC(C)C)C(=O)N[C@@H](CCCNC(=N)N)C(=O)N[C@@H](Cc1c[nH]cn1)C(=O)N[C@@H](Cc1ccc(O)cc1)C(=O)N[C@@H](Cc1ccc(O)cc1)C(=O)N[C@@H](CC(N)=O)C(=O)N[C@@H](Cc1c[nH]c2ccccc12)C(=O)N[C@@H](CC(C)C)C(=O)N[C@H](C(=O)N[C@@H](CCCNC(=N)N)C(=O)N[C@@H](CCC(N)=O)C(=O)N[C@@H](CCCNC(=N)N)C(=O)N[C@@H](Cc1ccc(O)cc1)C(N)=O)[C@@H](C)O)C(C)C)[C@@H](C)O) [Compound 134]
